Measurements as given in patent US20240409935A1 (UNM RAINFOREST INNOVATIONS, published 2024).

T1: FLAG-ALIX (full length) (UniProt Q8WUM4 1-868)
T1 construct: also called full-length ALIX; not shown: FLAG tag
T1 sequence (looked up): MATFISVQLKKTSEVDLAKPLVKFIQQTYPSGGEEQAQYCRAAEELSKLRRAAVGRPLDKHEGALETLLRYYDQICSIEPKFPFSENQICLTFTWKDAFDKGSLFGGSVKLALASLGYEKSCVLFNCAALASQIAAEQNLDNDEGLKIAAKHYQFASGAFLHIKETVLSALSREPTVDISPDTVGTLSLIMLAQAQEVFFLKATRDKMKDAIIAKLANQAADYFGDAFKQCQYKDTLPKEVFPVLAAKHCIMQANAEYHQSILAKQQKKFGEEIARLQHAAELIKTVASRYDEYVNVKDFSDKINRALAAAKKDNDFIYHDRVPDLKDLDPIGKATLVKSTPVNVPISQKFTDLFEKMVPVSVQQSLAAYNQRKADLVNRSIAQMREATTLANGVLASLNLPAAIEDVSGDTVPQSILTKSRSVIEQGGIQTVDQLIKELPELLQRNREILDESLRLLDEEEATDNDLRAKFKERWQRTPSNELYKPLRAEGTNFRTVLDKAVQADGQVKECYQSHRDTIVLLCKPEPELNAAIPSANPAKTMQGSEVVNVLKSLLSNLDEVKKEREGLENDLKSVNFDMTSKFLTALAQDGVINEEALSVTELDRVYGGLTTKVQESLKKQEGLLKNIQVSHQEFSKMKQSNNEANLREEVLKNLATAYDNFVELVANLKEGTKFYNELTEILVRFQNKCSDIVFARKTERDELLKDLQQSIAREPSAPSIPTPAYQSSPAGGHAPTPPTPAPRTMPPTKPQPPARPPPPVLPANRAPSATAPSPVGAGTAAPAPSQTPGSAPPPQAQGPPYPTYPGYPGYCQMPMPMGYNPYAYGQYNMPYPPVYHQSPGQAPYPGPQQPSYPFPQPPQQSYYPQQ

B1: Myc-PKR (enzyme, UniProt P19525 1-551, looked up)
chain: MAGDLSAGFFMEELNTYRQKQGVVLKYQELPNSGPPHDRRFTFQVIIDGREFPEGEGRSKKEAKNAAAKLAVEILNKEKKAVSPLLLTTTNSSEGLSMGNYIGLINRIAQKKRLTVNYEQCASGVHGPEGFHYKCKMGQKEYSIGTGSTKQEAKQLAAKLAYLQILSEETSVKSDYLSSGSFATTCESQSNSLVTSTLASESSSEGDFSADTSEINSNSDSLNSSSLLMNGLRNNQRKAKRSLAPRFDLPDMKETKYTVDKRFGMDFKEIELIGSGGFGQVFKAKHRIDGKTYVIKRVKYNNEKAEREVKALAKLDHVNIVHYNGCWDGFDYDPETSDDSLESSDYDPENSKNSSRSKTKCLFIQMEFCDKGTLEQWIEKRRGEKLDKVLALELFEQITKGVDYIHSKKLIHRDLKPSNIFLVDTKQVKIGDFGLVTSLKNDGKRTRSKGTLRYMSPEQISSQDYGKEVDLYALGLILAELLHVCDTAFETSKFFTDLRDGIISDIFDKKEKTLLQKLLSKKPEDRPNTSEILRTLTVWKKSPEKNERHTC
notes: not shown: Myc tag
B2: GFP-PKR (enzyme, UniProt P19525 1-551, looked up)
chain: B1 chain
notes: not shown: GFP
B3: endogenous PACT (other, UniProt O75569 1-313, looked up)
chain: MSQSRHRAEAPPLEREDSGTFSLGKMITAKPGKTPIQVLHEYGMKTKNIPVYECERSDVQIHVPTFTFRVTVGDITCTGEGTSKKLAKHRAAEAAINILKANASICFAVPDPLMPDPSKQPKNQLNPIGSLQELAIHHGWRLPEYTLSQEGGPAHKREYTTICRLESFMETGKGASKKQAKRNAAEKFLAKFSNISPENHISLTNVVGHSLGCTWHSLRNSPGEKINLLKRSLLSIPNTDYIQLLSEIAKEQGFNITYLDIDELSANGQYQCLAELSTSPITVCHGSGISCGNAQSDAAHNALQYLKIIAERK
notes: also called PRKRA
B4: GFP-PACT (other, UniProt O75569 1-313, looked up)
chain: B3 chain
notes: not shown: GFP
B5: ALIX (cellular) (other, UniProt Q8WUM4 2-868, looked up)
chain: ATFISVQLKKTSEVDLAKPLVKFIQQTYPSGGEEQAQYCRAAEELSKLRRAAVGRPLDKHEGALETLLRYYDQICSIEPKFPFSENQICLTFTWKDAFDKGSLFGGSVKLALASLGYEKSCVLFNCAALASQIAAEQNLDNDEGLKIAAKHYQFASGAFLHIKETVLSALSREPTVDISPDTVGTLSLIMLAQAQEVFFLKATRDKMKDAIIAKLANQAADYFGDAFKQCQYKDTLPKEVFPVLAAKHCIMQANAEYHQSILAKQQKKFGEEIARLQHAAELIKTVASRYDEYVNVKDFSDKINRALAAAKKDNDFIYHDRVPDLKDLDPIGKATLVKSTPVNVPISQKFTDLFEKMVPVSVQQSLAAYNQRKADLVNRSIAQMREATTLANGVLASLNLPAAIEDVSGDTVPQSILTKSRSVIEQGGIQTVDQLIKELPELLQRNREILDESLRLLDEEEATDNDLRAKFKERWQRTPSNELYKPLRAEGTNFRTVLDKAVQADGQVKECYQSHRDTIVLLCKPEPELNAAIPSANPAKTMQGSEVVNVLKSLLSNLDEVKKEREGLENDLKSVNFDMTSKFLTALAQDGVINEEALSVTELDRVYGGLTTKVQESLKKQEGLLKNIQVSHQEFSKMKQSNNEANLREEVLKNLATAYDNFVELVANLKEGTKFYNELTEILVRFQNKCSDIVFARKTERDELLKDLQQSIAREPSAPSIPTPAYQSSPAGGHAPTPPTPAPRTMPPTKPQPPARPPPPVLPANRAPSATAPSPVGAGTAAPAPSQTPGSAPPPQAQGPPYPTYPGYPGYCQMPMPMGYNPYAYGQYNMPYPPVYHQSPGQAPYPGPQQPSYPFPQPPQQSYYPQQ
notes: also called PDCD6IP
B6: endogenous PKR (enzyme, UniProt P19525 2-551, looked up)
chain: AGDLSAGFFMEELNTYRQKQGVVLKYQELPNSGPPHDRRFTFQVIIDGREFPEGEGRSKKEAKNAAAKLAVEILNKEKKAVSPLLLTTTNSSEGLSMGNYIGLINRIAQKKRLTVNYEQCASGVHGPEGFHYKCKMGQKEYSIGTGSTKQEAKQLAAKLAYLQILSEETSVKSDYLSSGSFATTCESQSNSLVTSTLASESSSEGDFSADTSEINSNSDSLNSSSLLMNGLRNNQRKAKRSLAPRFDLPDMKETKYTVDKRFGMDFKEIELIGSGGFGQVFKAKHRIDGKTYVIKRVKYNNEKAEREVKALAKLDHVNIVHYNGCWDGFDYDPETSDDSLESSDYDPENSKNSSRSKTKCLFIQMEFCDKGTLEQWIEKRRGEKLDKVLALELFEQITKGVDYIHSKKLIHRDLKPSNIFLVDTKQVKIGDFGLVTSLKNDGKRTRSKGTLRYMSPEQISSQDYGKEVDLYALGLILAELLHVCDTAFETSKFFTDLRDGIISDIFDKKEKTLLQKLLSKKPEDRPNTSEILRTLTVWKKSPEKNERHTC
notes: also called EIF2AK2; Protein Kinase R

Key:
FLAG-ALIX (full length) [1] = molecular target: T1, FLAG-ALIX (full length); assay: co-IP with anti-FLAG from HEK293T cells expressing FLAG tagged ALIX constructs and Myc-PKR
ALIX (cellular) = molecular target: B5; assay: confocal microscopy of GFP-PKR/PACT and ALIX in U2OS cells, 2 mM LLOMe
FLAG-eIF2α = molecular target: T2, FLAG-eIF2α (UniProt P05198 1-315); assay: co-IP with anti-FLAG from HEK293T cells, 1 mM LLOMe 30 min
T2 construct: not shown: FLAG tag

FLAG-ALIX (full length) [2] = molecular target: T1, FLAG-ALIX (full length); assay: as above
FLAG-PKR = molecular target: T3, FLAG-PKR (UniProt P19525 1-551); assay: co-IP of FLAG-PKR and PACT in HEK293T cells
T3 construct: not shown: FLAG tag

endogenous PKR = molecular target: B6; assay: co-IP with anti-GFP from HEK293T cells transfected with FLAG or FLAG-ALIX, 1 mM LLOMe 30 min
APEX2-eIF2α = molecular target: T4, APEX2-eIF2α (UniProt P05198 1-315); assay: APEX2-eIF2α proximity biotinylation, LC/MS/MS, LLOMe against control
T4 construct: also called APEX2-eIF2α fusion
T4 sequence (P05198 whole entry, the tested form may be a part): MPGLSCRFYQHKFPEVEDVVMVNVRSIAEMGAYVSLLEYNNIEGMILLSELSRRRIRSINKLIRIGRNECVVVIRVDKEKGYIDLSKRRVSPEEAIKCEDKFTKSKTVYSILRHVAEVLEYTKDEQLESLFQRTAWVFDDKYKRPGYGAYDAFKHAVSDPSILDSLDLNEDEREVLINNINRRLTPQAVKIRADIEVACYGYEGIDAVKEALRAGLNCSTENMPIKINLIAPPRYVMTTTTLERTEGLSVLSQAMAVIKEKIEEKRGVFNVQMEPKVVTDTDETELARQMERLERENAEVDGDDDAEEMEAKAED

T2 sequence (P05198 whole entry): as the sequence (P05198 whole entry, the tested form may be a part) above

## B1
FLAG-ALIX (full length) [1]
  binding result: binds

## B2
ALIX (cellular)
  binding result: binds

## B3
FLAG-eIF2α
  binding result: binds
FLAG-ALIX (full length) [2]
  binding result: binds
FLAG-PKR
  binding result: binds

## B4
ALIX (cellular)
  binding result: binds
Endogenous PKR
  binding result: binds

## B5
APEX2-eIF2α
  fold increase in association with eIF2α (LLOMe/CTR): > 10 fold

## B6
FLAG-ALIX (full length) [2]
  binding result: binds
